Results from US20200299380A1 (published 2020).
Positions count from the first letter of the chain named.

B1: biotin-conjugated mouse antibody 6E4 (antibody, V domains shown)
VH: EVQLVESGGALVKPGGSLKLSCAASGFTFSYYAMSWVRQTPEKRLEWVATISRGGNYIYYTDSVKGRFTISRDNAKNTLYLQMTSLRSEDTAMFYCASISDYDGAWLAYWGQGTLVTV
VL: DVLMTQTPLSLPVSLGDQASISCRSSQSIIHTNGNTYLEWYLQKPGQSPKLLIYKISNRFSGVPDRFSGSGSGTDFTLKISRVEAEDLGVYYCFQGSHVPWTFGGGTKLEIK
notes: also called 6E4 (mouse)
B2: CHG1-M-MIA-12A10 (antibody, human IgG1, V domains shown)
VH: QVQLQQSGADLVRPGASVRLSCRASGYSFTNYWMNWVKQRPGQGLEWIGMIHPSDSETRLNQKFKDKATLTVDKSSNTAYMQLSSPTSEDSAIYYCARDDFFTMDYWGQGTSVTVSS
VL: DILLTQSPAILSVSPGERVSFSCRASQNIVTSIHWYQQSTNGSPRLLIKYASESISGIPSRFSGSGSGTDFTLTINSVESEDVADYYCQQSNIWPLTFGAGTKLELK
notes: the VH entry ends with ASTK
B3: biotin-conjugated mouse antibody 20C6 (antibody, V domains shown)
VH: QITLKESGPGILKPSQTLSLTCSFSGFSLSTSGMGVGWIRQPSGKGLEWLAHIWWDDDKYYNPSLKSQLTISKDTSRNQVFLRITSVDTADTATYYCARRTQGYFDYWGQGTTLTVSS
VL: DIVMTQSPATLSVTPGDRVSLSCRASQSISDYLHWYQQKSHESPRLLIKYASQSISGIPSRFSGSGSGSDFTLSINSVEPEDVGVYYCQNGHSFPWTFGGGTKLEIK
notes: also called 20C6 (mouse)
B4: biotin-conjugated mouse antibody 9C10 (antibody, V domains shown)
VH: QVQLQQPGAELVRPGTSVNLSCKASGYSFTRYWMNWVKQRPGQGLEWIGMIHPSDSETRLNQKFKDKATLTVDKSSSTAYMQLSSPTSEDSAVYYCGYGNFFYVMDYWGQGTSVTVSS
VL: B2 VL with N28S, V30G, S39R, Y50F, T74N, V83I, I93F, L96F, A100S, L106V
notes: also called 9C10 (mouse)
B5: CHG1-M-MIA-14B4 (antibody, V domains shown)
VH: QVQLQQPGAELVRPGASVKLSCKASGYSFTSYWMNWMKQRPGQGLEWIGMIHPSDSETRLNQKFKDKATLTVDKSSSTAYMQLNSPTSEDSAVYYCAREMGPYTLDYWGQGTSVTVSS
VL: B2 VL with E17A, V30D, S39R, T74S, V83I, I93Y
notes: the VH entry ends with ASTK

How the values were obtained:
[1] = molecular target: T1, recombinant human MICA extracellular domain recombinant-His protein (MICA*001 allele) (human, UniProt Q29983 24-297); assay: SPR (Biacore T100), bivalent mean KD at pH 7.4, MICA*001-His on NTA chip, antibody injected
T1 construct: also called MICA*001-His; MICA-His; not shown: His tag
T1 sequence: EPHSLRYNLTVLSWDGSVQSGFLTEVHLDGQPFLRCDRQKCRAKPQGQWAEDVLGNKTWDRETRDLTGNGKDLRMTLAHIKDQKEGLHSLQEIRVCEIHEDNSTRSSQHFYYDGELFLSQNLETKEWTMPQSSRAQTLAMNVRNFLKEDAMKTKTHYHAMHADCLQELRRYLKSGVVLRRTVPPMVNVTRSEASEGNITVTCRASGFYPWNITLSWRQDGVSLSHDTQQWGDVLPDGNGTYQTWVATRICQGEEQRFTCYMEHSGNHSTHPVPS
Method: The binding of 6E4, 20C6 and 16A8 to either recombinant human MICA extracellular domain recombinant protein monomers or dimers (MICA*019 allele-Fc protein or MICA*001-His protein) as well as other NKG2D ligands MICB and ULBP1-2 was analyzed by Surface Plasmon Resonance (SPR) using a Biacore T100 apparatus to obtain monovalent and bivalent affinity, respectively.
Each cycle consisted of three steps. Firstly, the NTA chip was activated with NiSO₄ (500 mM). Secondly, the MICA-His protein (diluted to 10 μg/ml in running buffer HBS-P) was immobilized onto the surface via a 2 min injection at a constant flowrate of 10 μL/min. Then the antibody was injected over the immobilized antigen for 2 min at the flow rate of 40 μl/min. Subsequently, the running buffer was injected for 5 min at 40 μl/min for antibody dissociation analysis. After each cycle, the surface was regenerated by a 60s injection of 0.5M EDTA, pH 8.3 to completely strip the surface of the remaining antigen and antibody. The resulting sensorgrams were analyzed by global fitting using the appropriate model.

[2] = molecular target: T1, recombinant human MICA extracellular …; assay: SPR (Biacore T100), monovalent affinity
[3] = molecular target: T2, MICB-Fc (R&D Systems 1599-MB) (human, UniProt Q29980 23-298, limits assumed); assay: SPR, antibody injected over immobilized MICB-Fc
T2 construct: Bought; also called human MICB-Fc; not shown: Fc of the bought fusion protein
T2 sequence: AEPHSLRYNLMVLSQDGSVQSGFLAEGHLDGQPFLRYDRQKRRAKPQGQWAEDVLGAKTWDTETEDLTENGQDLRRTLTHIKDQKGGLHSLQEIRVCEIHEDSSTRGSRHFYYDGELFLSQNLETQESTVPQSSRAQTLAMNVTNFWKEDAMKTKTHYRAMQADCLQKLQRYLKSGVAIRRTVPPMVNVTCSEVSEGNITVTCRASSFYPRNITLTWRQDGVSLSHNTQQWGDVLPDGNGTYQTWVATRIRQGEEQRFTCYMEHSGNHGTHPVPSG
Method: For cross-binding study, the human ULBP-1-Fc (R&D systems*), MICB-Fc (*), ULBP-2-Fc (*) and ULBP-3-Fc (*) recombinant proteins were covalently immobilized respectively on the flow cell one to four of a CM5 sensorchip. Anti-MICA antibodies (at a constant concentration of 10 μg/ml) were injected for 2 minutes at a flow rate of 10 μl/min onto the four flow cells in parallel. After each cycle, Sensorchip was regenerated by a five second injection of appropriate regeneration buffer.

[4] = molecular target: T3, MICA*004 expressed at the cell surface (human, UniProt Q29983 24-297); assay: flow cytometry on C1R transfectant cells, 4-parameter logistic fit
T3 construct: also called C1R-MICA*004; C1R-MICA*04
T3 chain: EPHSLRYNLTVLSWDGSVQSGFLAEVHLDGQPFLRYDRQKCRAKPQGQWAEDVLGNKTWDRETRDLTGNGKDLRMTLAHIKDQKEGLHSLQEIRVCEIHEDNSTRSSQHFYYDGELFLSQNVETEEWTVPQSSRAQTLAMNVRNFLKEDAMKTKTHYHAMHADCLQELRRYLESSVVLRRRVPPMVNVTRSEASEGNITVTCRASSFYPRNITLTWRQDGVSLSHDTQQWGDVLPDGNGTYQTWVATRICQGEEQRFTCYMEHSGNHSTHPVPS
Method: (§1) The binding of antibodies obtained from the first, second and third immunization series (including CHG1-M-MIA-19E9, CHG1-M-MIA-9C10, CHG1-M-MIA-6E4, CHG1-M-MIA-20C6, CHG1-M-MIA-16A8, CHG1-M-MIA-12A10, CHG1-M-MIA-10A7, CHG1-M-MIA-18E8, CHG1-M-MIA-10F3, CHG1-M-MIA-15F9 and CHG1-M-MIA-14B4) were tested for binding to MICA-expressing CR1 transfectant cells C1R-MICA*001, C1R-MICA*004, C1R-MICA*007 and C1R-MICA*008 (Pr. A. Steinle, Eberhard-Karls University Tuebingen, Germany) described in Salih et al. (2003) Blood 102(4): […]. Binding was analyzed by flow cytometry.
(§2) Cells were harvested and stained in PBS 1×/BSA 0.2%/EDTA 2 mM buffer during 30 minutes at 4° C. using a dose-range of the anti-MICA mAbs. After two washes in staining buffer, cells were stained for 30 min at 4° C. with mouse anti-human IgG1-PE monoclonal antibodies (1/11). After two washes, stainings were acquired on a BD FACS Canto II and analyzed using the FlowJo software.
(§3) Antibodies CHG1-M-MIA-19E9, CHG1-M-MIA-9C10, CHG1-M-MIA-6E4, CHG1-M-MIA-20C6, CHG1-M-MIA-12A10, CHG1-M-MIA-10A7, CHG1-M-MIA-18E8, CHG1-M-MIA-10F3, and CHG1-M-MIA-15F9 bound to each of the C1R-MICA*001, C1R-MICA*004, C1R-MICA*007 and C1R-MICA*008 cells (see FIG. 1A for antibodies CHG1-M-MIA-19E9, CHG1-M-MIA-9C10, CHG1-M-MIA-6E4, CHG1-M-MIA-20C6, CHG1-M-MIA-12A10, CHG1-M-MIA-10F3, and FIG. 1B for antibodies, CHG1-M-MIA-18E8, CHG1-M-MIA-15F9, CHG1-M-MIA-10A7). […] EC50 values are shown in Table C in μg/ml (calculated using a 4-parameter logistic fit).

[5] = molecular target: T4, MICA*008 expressed at the cell surface (human, UniProt Q29983 24-297); assay: as above
T4 construct: also called C1R-MICA*008; C1R-MICA*08
T4 chain: T3 chain with V122L, S175G, R181T, T213I, Q251R
Method: as §1, §2, §3

[6] = molecular target: T5, MICA*001 expressed at the cell surface (human, UniProt Q29983 24-297); assay: as above
T5 construct: the protein on cells also has its transmembrane and cytoplasmic parts (Genbank AAB41060); also called C1R-MICA*001; C1R-MICA*01
T5 sequence: T1 sequence
Method: as §1, §2, §3

[7] = molecular target: T6, MICA*007 expressed at the cell surface (human, UniProt Q29983 24-297); assay: as above
T6 construct: also called C1R-MICA*007; C1R-MICA*07
T6 chain: T1 sequence with T24A, K125E
Method: as §1, §2, §3

[8] = molecular target: T7, MICA*001-BirA (human, UniProt Q29983 24-297); assay: SPR single cycle kinetics, monovalent mean KD at pH 7.4, antibody captured on Protein-G chip, MICA-BirA injected
T7 construct: also called MICA-BirA; MICA*01-BirA; not shown: BirA tag
T7 sequence: T1 sequence
Method: For monovalent affinity measurement, chimeric anti-MICA antibodies were captured onto a Protein-G chip.
Affinities were determined using single cycle kinetics (SCK). SCK cycles were as follows: Successive 120s injections at 30 μl/min of 5 serial dilutions (0.01 to 100 nM) of MICA-His or MICA-BirA in ascending order (or of buffer for the blank injections to be subtracted during the analysis). After the last concentration is injected, complex is left to dissociate for 600s before regeneration by a 10s injection of appropriate regeneration buffer at 40 μl/min. After the regeneration, chip is left to stabilise for 60s in running buffer. Curves are fitted using Biacore T100 Evaluation software.

Binder	Kd [1] [nM]	Kd [2] [nM]	binding result [3]	EC50 [4] [µg/mL]	EC50 [5] [µg/mL]	EC50 [6] [µg/mL]	EC50 [7] [µg/mL]	Kd [8] [nM]
B1	0.031	2						
B2			no binding (tested: 10 µg/ml)	0.26	0.25	1.3	1.43	53
B3	0.33	6.5						
B4	0.00062							
B5			no binding (tested: 10 µg/ml)	0.24	0.3	12.7		
